Reference: article PMC4751342

How the values were obtained:
[1] = molecular target: human Izumo1, immobilized AVEXIS bait (UniProt Q8IYV9); assay: AVEXIS; details: parent: est. 0.16; read off a plot
[2] = molecular target: mouse Izumo1, immobilized AVEXIS bait (UniProt Q9D9J7); assay: AVEXIS; details: parent: est. 0.51; read off a plot
Chain of mouse Izumo1, immobilized AVEXIS bait (Q9D9J7 22-397): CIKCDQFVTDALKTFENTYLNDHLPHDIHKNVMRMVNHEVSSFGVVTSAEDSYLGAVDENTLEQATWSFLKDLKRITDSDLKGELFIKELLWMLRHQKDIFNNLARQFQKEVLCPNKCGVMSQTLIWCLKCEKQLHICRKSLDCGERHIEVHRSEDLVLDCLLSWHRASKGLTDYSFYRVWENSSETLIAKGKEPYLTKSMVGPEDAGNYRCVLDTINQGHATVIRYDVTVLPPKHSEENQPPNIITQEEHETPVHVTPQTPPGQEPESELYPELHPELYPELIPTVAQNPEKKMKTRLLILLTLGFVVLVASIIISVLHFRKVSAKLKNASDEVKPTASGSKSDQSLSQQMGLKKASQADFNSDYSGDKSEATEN

Chain of human Izumo1, immobilized AVEXIS bait (Q8IYV9 22-350): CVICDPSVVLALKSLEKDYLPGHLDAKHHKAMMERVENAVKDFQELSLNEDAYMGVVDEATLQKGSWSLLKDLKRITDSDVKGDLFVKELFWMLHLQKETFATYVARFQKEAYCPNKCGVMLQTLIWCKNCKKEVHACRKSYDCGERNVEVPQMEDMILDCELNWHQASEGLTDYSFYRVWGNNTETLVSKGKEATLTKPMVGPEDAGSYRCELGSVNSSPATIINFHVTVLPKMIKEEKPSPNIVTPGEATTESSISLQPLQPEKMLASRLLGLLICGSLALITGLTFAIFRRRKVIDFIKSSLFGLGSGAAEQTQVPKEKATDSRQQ
Chain of mouse Juno, wild type, AVEXIS prey (from UniProt Q9EQF4) Loop 2 (mouse Juno loop 2 replaced with the corresponding human residues) (Q9EQF4 20-222, change not shown): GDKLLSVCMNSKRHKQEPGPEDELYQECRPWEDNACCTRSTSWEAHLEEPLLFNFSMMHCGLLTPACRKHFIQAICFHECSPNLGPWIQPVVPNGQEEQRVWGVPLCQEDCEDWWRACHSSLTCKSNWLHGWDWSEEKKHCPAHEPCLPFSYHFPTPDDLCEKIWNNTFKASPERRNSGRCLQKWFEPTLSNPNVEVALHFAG
Chain of mouse Juno, wild type, AVEXIS prey (from UniProt Q9EQF4) Loop1 (mouse Juno loop 1 replaced with the corresponding human residues) (Q9EQF4 20-222, change not shown): as above
Chain of mouse Juno, wild type, AVEXIS prey (from UniProt Q9EQF4) Loop 3 (mouse Juno loop 3 replaced with the corresponding human residues) (Q9EQF4 20-222, change not shown): as above

response [1] | response [2] | Substance
0.17 A 485 nm | 0.51 A 485 nm | mouse Juno, wild type, AVEXIS prey (from UniProt Q9EQF4) Loop 2 (mouse Juno loop 2 replaced with the corresponding human residues)
0.16 A 485 nm | 0.22 A 485 nm | mouse Juno, wild type, AVEXIS prey (from UniProt Q9EQF4) Loop1 (mouse Juno loop 1 replaced with the corresponding human residues)
0.51 A 485 nm | 0.52 A 485 nm | mouse Juno, wild type, AVEXIS prey (from UniProt Q9EQF4) Loop 3 (mouse Juno loop 3 replaced with the corresponding human residues)
